T1: mouse PRLR on HEK293/mPRLR cells (Mus musculus, UniProt Q08501)
T1 construct: HA; expressed in transfected cells; host or cells: HEK293
T1 sequence (Q08501 20-608): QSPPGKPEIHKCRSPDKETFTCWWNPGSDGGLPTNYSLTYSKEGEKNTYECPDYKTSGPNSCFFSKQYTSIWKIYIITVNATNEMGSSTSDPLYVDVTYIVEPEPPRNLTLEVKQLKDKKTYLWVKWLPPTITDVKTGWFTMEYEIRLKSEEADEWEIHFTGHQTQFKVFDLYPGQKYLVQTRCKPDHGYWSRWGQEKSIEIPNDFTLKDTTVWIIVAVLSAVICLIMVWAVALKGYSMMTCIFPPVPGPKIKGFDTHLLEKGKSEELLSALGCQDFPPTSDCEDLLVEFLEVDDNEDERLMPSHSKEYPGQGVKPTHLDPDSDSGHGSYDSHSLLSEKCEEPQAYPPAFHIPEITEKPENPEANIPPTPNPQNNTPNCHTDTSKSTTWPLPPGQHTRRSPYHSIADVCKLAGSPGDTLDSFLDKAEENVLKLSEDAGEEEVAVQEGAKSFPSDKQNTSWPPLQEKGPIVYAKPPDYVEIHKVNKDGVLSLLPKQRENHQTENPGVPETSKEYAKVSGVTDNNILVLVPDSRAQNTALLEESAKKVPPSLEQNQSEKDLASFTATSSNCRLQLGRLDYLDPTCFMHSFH

B1: H1H6953N: anti-PRLR antibody, human IgG1 Fc form of H1M6953N of Table 1; HCVR/LCVR SEQ ID NOs 274/282 (antibody, V domains shown)
VH: EVQLLESGGGLVQPGGTLRLSCAASGFTFSAYAMSWVRQAPGKGLEWVSSINVRAGDTYYADSVKGRFTISRDNSKNTLFLLMNSLRAEDTAAYYCAKARYSSNWGFDFWGQGTLVTVSS
VL: DIVMTQSPDSLTVSLGARTTINCQSSQTILHSSNNHNYLAWYQQKPGLPPKLLIYWSSTRESGVPDRFSGSGSGTDFTLTISSLQAEDVAIYYCQQYSNTPYTFGQGTKLEIN
B2: H1H6797P: fully human anti-PRLR antibody, human IgG1 Fc; HCVR/LCVR SEQ ID NOs 178/186 (antibody, V domains shown)
VH: EVQLVESGGGLVQPGGSLRLSCIVSGFTFSGSWMSWVRQLPGKGLEWVANIKEDGSDSYYVDSVEGRFTISRDNAKSSLYLQMNSLRVDDTAVYFCARARTVPLHYWGQGTLVTVSS
VL: DIQMTQSPSTLSASVGDRVTITCRASQSINIWLAWYQQKPGKAPKLLIYRASYLESGVPSSFAGGGSGTEFTLTISSLQPDDFGTYYCQHYNSYPFTFGQGTKLEIK
B3: H1H6975N: anti-PRLR antibody, human IgG1 Fc form of H2M6975N of Table 1; HCVR/LCVR SEQ ID NOs 370/378 (antibody, V domains shown)
VH: EVHLVESGGGLVQPGGSLRLSCAASGFTFSSYEMNWVRQTPGKGLEWISHISSRSVIIYYADSVKGRFTISRDNAKNSLFLQMNSLRAEDTAVYFCAGITIFGIPEYWGQGTLVTVSS
VL: EIVLTQSPATLSLSPGERATLSCRASQSVSSYFAWYQQKPGQAPRLLIYDASSRATGIPTRFSGSGSGTDFTLTISSLEPEDFAVYYCQQRSSWPITFGQGTRLEIK
modifications: human IgG1 Fc
B4: H1H6774P: fully human anti-PRLR antibody, human IgG1 Fc; HCVR/LCVR SEQ ID NOs 34/42 (antibody, V domains shown)
VH: EVQLVESGGGLAQPGGSLRLSCVASGFTFSTYWMSWVRQAPGKGLDWVGNIKQDGSEQNYVDSVRGRFTISRDNAKNSLFLQMNSLRAEDTGVYYCATLLTKGDYWGQGTLVTVSS
VL: DIQMTQSPSSLSASVGDSVTITCRASQDISNYLDWFQQKPGKAPKSLIYAASILQGGVPSRFSGSGYGTDFTLTISSLQPEDFATYYCRQYKTYPFTFGPGTKVDIK
B5: H1H6795P: fully human anti-PRLR antibody, human IgG1 Fc; HCVR/LCVR SEQ ID NOs 162/170 (antibody, V domains shown)
VH: QVQLVQSGAEVKKPGASVKVSCKASGYTFGTSGITWVRQAPGQGLEWMGWSSAYNGKTDYAQKFQDRVTMTTDTSTTTGYMEMRSLTSDDTAVYYCTTVVRRPFDFWGQGTLVTVSS
VL: DIQMTQSPSSLSASVGDRVTITCRASQDINNFLAWFQQKPGKAPKSLIYAASSLQSGVPSKFSGGGSGTDFALTISSLQPEDFATYYCQQYSSYPITFGQGTRLEIK

The molecules below were run against T1, mouse PRLR on HEK293/mPRLR cells (assay: FACS cell surface binding). Conditions: not given.
Outline: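 HEK293 cells stably transfected with HA-tagged human, cynomolgus or mouse PRLR (G418-selected), or parental HEK293, were stained with 10 μg/ml antibody for 30 min on ice. Binding was then detected with 10 μg/ml PE anti-human secondary for 30 min on ice, and MFI was expressed as fold over isotype control.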

| FACS Cell Binding | Molecule |
| --- | --- |
| 2 Fold Above Background | B1 |
| 2 Fold Above Background | B2 |
| 1 Fold Above Background | B3 |
| 1 Fold Above Background | B4 |
| 1 Fold Above Background | B5 |

These molecules were tested on Macaca fascicularis PRLR (mfPRLR.mmh; SEQ ID NO:403) (assay: Surface plasmon resonance (Biacore T200), antibody-capture format). Conditions: 25° C., analyte mfPRLR.mmh.
Chain of Macaca fascicularis PRLR (mfPRLR.mmh; SEQ ID NO:403) (as listed by the source): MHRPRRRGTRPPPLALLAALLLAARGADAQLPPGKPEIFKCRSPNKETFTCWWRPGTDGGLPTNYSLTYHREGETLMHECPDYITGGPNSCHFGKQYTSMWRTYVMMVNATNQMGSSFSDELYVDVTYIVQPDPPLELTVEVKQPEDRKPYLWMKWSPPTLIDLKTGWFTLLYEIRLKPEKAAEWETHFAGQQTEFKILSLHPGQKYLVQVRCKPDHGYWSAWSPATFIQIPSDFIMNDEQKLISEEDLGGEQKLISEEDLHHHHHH
Type: binding
Outline: (§1)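 Antibodies (human IgG1 Fc) captured on an anti-human Fc sensor surface; soluble monomeric (.mmh) or dimeric (.mFc) PRLR injected as analyte. ka and kd obtained by fitting to a 1:1 binding model.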

| kd | Molecule | ka |
| --- | --- | --- |
| 0.000319 s⁻¹ | B1 | 727000 M/s |
| 0.00209 s⁻¹ | B2 | 670000 M/s |
| 0.000131 s⁻¹ | B3 | 115000 M/s |
| 0.000875 s⁻¹ | B4 | 495000 M/s |
| 0.00197 s⁻¹ | B5 | 844000 M/s |

Same assay, conditions: 37° C., analyte mfPRLR.mmh

| kd | Molecule | ka |
| --- | --- | --- |
| 0.00256 s⁻¹ | B1 | 947000 M/s |
| 0.00906 s⁻¹ | B2 | 914000 M/s |
| 0.000317 s⁻¹ | B3 | 140000 M/s |
| 0.00361 s⁻¹ | B4 | 723000 M/s |
| 0.00599 s⁻¹ | B5 | 973000 M/s |

These molecules were tested against T2, dimeric human PRLR (hPRLR.mFc; SEQ ID NO:402) (Homo sapiens, UniProt P16471) in the same assay as above. Conditions: 25° C., analyte hPRLR.mFc.
T2 construct: dimeric (hPRLR.mFc)
T2 sequence (P16471 with tags, fused parts or gaps): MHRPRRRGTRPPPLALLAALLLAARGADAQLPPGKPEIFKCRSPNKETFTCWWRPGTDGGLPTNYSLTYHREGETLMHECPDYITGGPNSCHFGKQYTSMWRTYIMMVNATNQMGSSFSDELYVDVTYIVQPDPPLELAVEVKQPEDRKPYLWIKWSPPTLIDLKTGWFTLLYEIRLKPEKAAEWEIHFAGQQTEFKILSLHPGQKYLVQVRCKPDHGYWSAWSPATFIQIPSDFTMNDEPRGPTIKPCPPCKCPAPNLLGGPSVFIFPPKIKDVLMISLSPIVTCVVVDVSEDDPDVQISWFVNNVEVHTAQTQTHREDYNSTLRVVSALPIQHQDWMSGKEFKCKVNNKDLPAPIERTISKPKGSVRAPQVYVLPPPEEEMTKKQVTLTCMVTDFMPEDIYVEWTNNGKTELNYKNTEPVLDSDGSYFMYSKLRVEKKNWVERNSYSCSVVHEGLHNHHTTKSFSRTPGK
Type: binding
Outline: as §1

| ka | kd | Molecule |
| --- | --- | --- |
| 711000 M/s | 4.77e-05 s⁻¹ | B1 |
| 982000 M/s | 0.000119 s⁻¹ | B2 |
| 287000 M/s | 1.97e-05 s⁻¹ | B3 |
| 798000 M/s | 8.94e-05 s⁻¹ | B4 |
| 1.54e+06 M/s | 8.41e-05 s⁻¹ | B5 |

Same assay, conditions: 37° C., analyte hPRLR.mFc

| ka | kd | Molecule |
| --- | --- | --- |
| 1.47e+06 M/s | 0.00017 s⁻¹ | B1 |
| 1.8e+06 M/s | 0.000125 s⁻¹ | B2 |
| 386000 M/s | 7.09e-05 s⁻¹ | B3 |
| 1.41e+06 M/s | 0.000194 s⁻¹ | B4 |
| 1.94e+06 M/s | 7.77e-05 s⁻¹ | B5 |

Each molecule was assayed against T3, monomeric human PRLR (hPRLR.mmh; SEQ ID NO:401) (Homo sapiens, UniProt P16471) in the same assay as above. Conditions: 25° C., analyte hPRLR.mmh.
T3 construct: soluble monomeric (hPRLR.mmh); mmh (myc-myc-hexahistidine) (C)
T3 sequence (P16471 with tags, fused parts or gaps): as the sequence (as listed by the source) above, with V105I, T139A, M154I, T187I, I236T counted along it
Type: binding
Outline: as §1

| ka | kd | Molecule |
| --- | --- | --- |
| 792000 M/s | 0.000212 s⁻¹ | B1 |
| 1.13e+06 M/s | 0.00196 s⁻¹ | B2 |
| 150000 M/s | 7.35e-05 s⁻¹ | B3 |
| 715000 M/s | 0.000818 s⁻¹ | B4 |
| 1.17e+06 M/s | 0.00177 s⁻¹ | B5 |

Same assay, conditions: 37° C., analyte hPRLR.mmh

| ka | kd | Molecule |
| --- | --- | --- |
| 1.1e+06 M/s | 0.00122 s⁻¹ | B1 |
| 1.29e+06 M/s | 0.00822 s⁻¹ | B2 |
| 211000 M/s | 0.000273 s⁻¹ | B3 |
| 1.07e+06 M/s | 0.00317 s⁻¹ | B4 |
| 1.36e+06 M/s | 0.0052 s⁻¹ | B5 |

The molecules below were run on HEK293 parental cells (assay: FACS cell surface binding). Conditions: not given.
Parameters: species or system human
Outline: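 Flow cytometry: 1×10^5 cells/sample; primary Ab 10 μg/ml, 30 min on ice; 2 washes; PE anti-human 2° 10 μg/ml, 30 min on ice. Cells were HEK293 stably expressing HA-tagged PRLR of the given species, or untransfected HEK293. Readout was MFI fold over isotype.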

| Molecule | FACS Cell Binding |
| --- | --- |
| B1 | 2 Fold Above Background |
| B2 | 1 Fold Above Background |
| B3 | 1 Fold Above Background |
| B4 | 1 Fold Above Background |
| B5 | 1 Fold Above Background |

Source: US10925971B2, “Methods of treating PRLR positive breast cancer” (Regeneron Pharmaceuticals, Inc., priority 2016, dated 2021)
